Where no end group is shown, it is not given here.
Columns and labels:
[1] = molecular target: Anti-CD28 Fab (SEQ ID NOs: 696, 697); assay: phage binding ELISA, clonal phage on biotinylated anti-CD28 Fab captured on neutravidin plates;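 also: crude clonal phage supernatants added to wells pretreated with CD28 antigen or blocking buffer only, bound phage detected by HRP-linked anti-M13 antibody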
Target sequence in this assay (VH, as listed by the source, chain 1 of 2): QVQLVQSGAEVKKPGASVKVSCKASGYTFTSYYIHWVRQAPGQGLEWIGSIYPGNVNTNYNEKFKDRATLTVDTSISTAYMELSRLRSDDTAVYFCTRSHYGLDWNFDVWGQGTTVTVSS
Target sequence in this assay (VL, as listed by the source, chain 2 of 2): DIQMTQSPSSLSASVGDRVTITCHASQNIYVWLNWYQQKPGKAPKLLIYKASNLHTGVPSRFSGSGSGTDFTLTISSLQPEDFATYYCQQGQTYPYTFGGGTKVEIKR
Procedure: (§1) After panning, phage infected bacteria were plated out and colonies picked into 96 well blocks. Clonal phage was then amplified and separated from bacterial cells via centrifugation.
(§2) Clonal phage were harvested as crude supematants and screened via standard ELISAs. […] Prior to the addition of clonal phage, wells were incubated with blocking buffer and CD28 antigen or blocking buffer alone. Without washing or aspirating, clonal phage supematants were then added to the wells and incubated for a short time. Wells were then washed followed by detection of bound phage using a horse radish conjugated anti-M13 antibody. Clonal phage of interest were then sent for sequence analysis.

[2] = molecular target: Anti-CD28 Fab (SEQ ID NOs: 696, 697); assay: phage binding ELISA on captured anti-CD28 Fab, wells pre-incubated with CD28 antigen as competitor;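 also: crude clonal phage supernatants added to wells preloaded with CD28 antigen, bound phage read by HRP-conjugated anti-M13 antibody, control wells got blocking buffer alone without CD28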
Target sequence in this assay (VH, as listed by the source, chain 1 of 2): as the sequence (VH, as listed by the source, chain 1 of 2) above
Target sequence in this assay (VL, as listed by the source, chain 2 of 2): as the sequence (VL, as listed by the source, chain 2 of 2) above
Procedure: as §1, §2

[3] = molecular target: T1, Anti-CD28 Fab (SEQ ID NOs: 696, 697); assay: phage ELISA; biotinylated anti-CD28 Fab on neutravidin plate, wells pre-incubated with CD28 antigen as competitor, anti-M13 HRP detection
T1 construct: Biotinylated and captured on neutravidin coated plates in the phage ELISA
T1 sequence (VH, as listed by the source, chain 1 of 2): as the sequence (VH, as listed by the source, chain 1 of 2) above
T1 sequence (VL, as listed by the source, chain 2 of 2): as the sequence (VL, as listed by the source, chain 2 of 2) above
Procedure: (§3) Clonal phage were harvested as crude supematants and screened via standard ELISAs. […] Prior to the addition of clonal phage, wells were incubated with blocking buffer and CD28 antigen or blocking buffer alone. Without washing or aspirating, clonal phage supematants were then added to the wells and incubated for a short time. Wells were then washed followed by detection of bound phage using a horse radish conjugated anti-M13 antibody.

[4] = molecular target: T1, Anti-CD28 Fab (SEQ ID NOs: 696, 697); assay: phage ELISA; biotinylated anti-CD28 Fab on neutravidin plate, clonal phage supernatant, anti-M13 HRP detection;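 also: before phage addition, wells were pretreated with either CD28 antigen in blocking buffer or only blocking buffer, and phage was added without an intervening wash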
Procedure: as §3

[5] = molecular target: T2, Anti-PSMA Fab (SEQ ID NOs: 19, 20); assay: phage binding ELISA; biotinylated PSMA Fab on neutravidin plate, clonal phage supernatant, anti-M13 HRP detection;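 also: wells were preincubated with blocking buffer either containing PSMA antigen or without it before crude phage supernatant was added, briefly incubated, then washed prior to detection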
T2 construct: also called 006 PSMA Fab
Procedure: (§4) Clonal phage were harvested as crude supernatants and screened via standard ELISAs. […] Prior to the addition of clonal phage. wells were incubated with blocking buffer and PSMA antigen or blocking buffer alone. Without washing or aspirating, clonal phage supernatants were then added to the wells and incubated for a short time. Wells were then washed followed by detection of bound phage using a horse radish conjugated anti-M13 antibody.

[6] = molecular target: T2, Anti-PSMA Fab (SEQ ID NOs: 19, 20); assay: phage binding ELISA; biotinylated PSMA Fab on neutravidin plate pre-incubated with PSMA antigen (competitor), anti-M13 HRP detection;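 also: competition ELISA where clonal phage supernatants were added to wells preincubated with PSMA antigen or with blocking buffer only as control, bound phage read via HRP-coupled anti-M13 antibody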
Procedure: as §4

[7] = molecular target: T3, PSMA Fab (biotinylated (site not stated)); assay: clonal phage supernatant ELISA on PSMA Fab pre-incubated with PSMA antigen as competitor; anti-M13-HRP detection
T3 construct: Biotinylated PSMA Fab captured on neutravidin coated plates for the clonal phage ELISA; also called Anti-PSMA Fab; 006 PSMA Fab

[8] = molecular target: T3, PSMA Fab; assay: clonal phage supernatant ELISA on biotinylated PSMA Fab captured on neutravidin; anti-M13-HRP detection
Procedure: as §4

[9] = molecular target: T4, PSMA Fab (biotinylated (site not stated)); assay: clonal phage ELISA on biotinylated PSMA Fab captured on neutravidin; anti-M13 HRP detection
T4 construct: Biotinylated PSMA Fab captured on neutravidin coated plates in the phage ELISA; also called Anti-PSMA Fab; 006 PSMA Fab

[10] = molecular target: T4, PSMA Fab; assay: clonal phage ELISA on plate-bound PSMA Fab pre-incubated with PSMA antigen as competitor
Procedure: as §4

Row | Binder | Phage binding ELISA, Anti-CD28 Fab signal in the presence of CD28 [3] | Phage binding ELISA, Anti-CD28 Fab signal [4] | Anti-PSMA Fab (SEQ ID NOs: 19, 20) signal [5] | Anti-PSMA Fab signal in the presence of PSMA [6] | Phage binding ELISA signal, Anti-PSMA Fab with PSMA antigen [7] | Phage binding ELISA signal, Anti-PSMA Fab [8] | further results
1 | YCDGHDEQYLMKCL (Peptide-87 library clone, tested as clonal phage (peptide fused to pIII of the bacteriophage)) [Phage-1326] | – | – | – | – | – | – | Anti-CD28 Fab signal (phage binding ELISA) [1]: 0.44; Anti-CD28 Fab signal in the presence of CD28 (phage binding ELISA) [2]: 0.07
2 | TCAAGANWHWPWCF [Phage-1561] | 0.15 | 1.46 | – | – | – | – | –
3 | LCAAGATYPWPICL [Phage-1562] | 0.08 | 1.46 | – | – | – | – | –
4 | SCSAGALWKWPVCF [Phage-1563] | 0.07 | 1.45 | – | – | – | – | –
5 | TCSAGFSYKWPWCW [Phage-1564] | 0.06 | 1.45 | – | – | – | – | –
6 | SCSAGAMYQWPLCF [Phage-1565] | 0.09 | 1.44 | – | – | – | – | –
7 | TCSAGATYMWPACF [Phage-1567] | 0.1 | 1.44 | – | – | – | – | –
8 | TCSAGATYAWPACF [Phage-1568] | 0.08 | 1.44 | – | – | – | – | –
9 | WCGVGMDWRWPECL [Phage-1569] | 0.16 | 1.44 | – | – | – | – | –
10 | TCEDGFHFSWPECF [Phage-1570] | 0.07 | 1.44 | – | – | – | – | –
11 | TCSAGATYTWPSCF [Phage-1572] | 0.06 | 1.42 | – | – | – | – | –
12 | WCDQFFHYKWPLCL [Phage-1573] | 0.07 | 1.42 | – | – | – | – | –
13 | SCAAGATYVWPMCF [Phage-1574] | 0.07 | 1.42 | – | – | – | – | –
14 | TCAAGAHYSWPFCM [Phage-1575] | 0.07 | 1.42 | – | – | – | – | –
15 | EPKWCVPRGLCNYD (peptide, not shown: large carriers, Clonal phage supernatant; also called Peptide-240) [Phage-1790] | – | – | 1.14 | 0.0587 | – | – | –
16 | YFVQCRPAWMCEGF (peptide, not shown: large carriers, Clonal phage supernatant) [Phage-1791] | – | – | 2.51 | 0.339 | – | – | –
17 | IVPLCKPAWMCKLF (peptide, not shown: large carriers, Clonal phage supernatant) [Phage-1792] | – | – | 2.48 | 0.221 | – | – | –
18 | AVKACIPEWMCIGF (peptide, not shown: large carriers, Clonal phage supernatant) [Phage-1793] | – | – | 2.44 | 0.106 | – | – | –
19 | VQIQCRPAWMCLGF (peptide, not shown: large carriers, Clonal phage supernatant) [Phage-1794] | – | – | 2.44 | 0.127 | – | – | –
20 | AEVKCIPQWMCQGF (peptide, not shown: large carriers, Clonal phage supernatant) [Phage-1795] | – | – | 2.43 | 0.0852 | – | – | –
21 | TAHHCKPAWMCTGF (peptide, not shown: large carriers, Clonal phage supernatant) [Phage-1796] | – | – | 2.42 | 0.103 | – | – | –
22 | FTNYCVPSWMCTGF (peptide, not shown: large carriers, Clonal phage supernatant) [Phage-1797] | – | – | 2.42 | 0.129 | – | – | –

Row | Binder | Phage binding ELISA, Anti-CD28 Fab signal in the presence of CD28 [3] | Phage binding ELISA, Anti-CD28 Fab signal [4] | Anti-PSMA Fab (SEQ ID NOs: 19, 20) signal [5] | Anti-PSMA Fab signal in the presence of PSMA [6] | Phage binding ELISA signal, Anti-PSMA Fab with PSMA antigen [7] | Phage binding ELISA signal, Anti-PSMA Fab [8] | further results
23 | VEKVCKPVWMCVGF (peptide, not shown: large carriers, Clonal phage supernatant) [Phage-1798] | – | – | 2.41 | 0.156 | – | – | –
24 | EEPLCRPVWMCEGF (peptide, not shown: large carriers, Clonal phage supernatant) [Phage-1799] | – | – | 2.41 | 0.117 | – | – | –
25 | ESRLCVPAWMCAGF (peptide, not shown: large carriers, Clonal phage supernatant; also called Peptide-270) [Phage-1800] | – | – | 2.41 | 0.103 | – | – | –
26 | EDILCKPKWMCEGF (peptide, not shown: large carriers, Clonal phage supernatant) [Phage-1801] | – | – | 2.4 | 0.109 | – | – | –
27 | LHVYCVPEWMCAGF (peptide, not shown: large carriers, Clonal phage supernatant; also called Peptide-272) [Phage-1802] | – | – | 2.38 | 0.109 | – | – | –
28 | DFAYCKPEWMCVGF (Clonal phage of the peptide-180 library; not shown: pIII filament protein of the bacteriophage, fused to the peptide) [Phage-3102] | – | – | – | – | 0.0844 | 2.09 | –
29 | GEILCRPAWMCYGF (Clonal phage of the peptide-180 library; not shown: pIII filament protein of the bacteriophage, fused to the peptide) [Phage-3103] | – | – | – | – | 0.119 | 2.09 | –
30 | GEVLCRPAWMCSGF (Clonal phage of the peptide-180 library; not shown: pIII filament protein of the bacteriophage, fused to the peptide) [Phage-3104] | – | – | – | – | 0.11 | 2.09 | –
31 | QEIRCEPIWMCWGF (Clonal phage of the peptide-180 library; not shown: pIII filament protein of the bacteriophage, fused to the peptide) [Phage-3105] | – | – | – | – | 0.147 | 2.09 | –
32 | NPMYCKPSWMCEGF (Clonal phage of the peptide-180 library; not shown: pIII filament protein of the bacteriophage, fused to the peptide) [Phage-3106] | – | – | – | – | 0.0958 | 2.08 | –
33 | PVAVCKPEWMCIGF (Clonal phage of the peptide-180 library; not shown: pIII filament protein of the bacteriophage, fused to the peptide) [Phage-3107] | – | – | – | – | 0.105 | 2.08 | –
34 | SEVVCVPTWMCTGF (Clonal phage of the peptide-180 library; not shown: pIII filament protein of the bacteriophage, fused to the peptide) [Phage-3108] | – | – | – | – | 0.0805 | 2.08 | –
35 | VEAMCKPWWMCEGL (Clonal phage of the peptide-180 library; not shown: pIII filament protein of the bacteriophage, fused to the peptide) [Phage-3109] | – | – | – | – | 0.0719 | 2.08 | –
36 | VVQLCRPSWMCQGF (Clonal phage of the peptide-180 library; not shown: pIII filament protein of the bacteriophage, fused to the peptide) [Phage-3110] | – | – | – | – | 0.281 | 2.08 | –
37 | IEIMCMPRWMCDGF (Clonal phage of the peptide-180 library; not shown: pIII filament protein of the bacteriophage, fused to the peptide) [Phage-3111] | – | – | – | – | 0.101 | 2.08 | –
38 | EPQMCIPRWMCDGF (Clonal phage of the peptide-180 library; not shown: pIII filament protein of the bacteriophage, fused to the peptide) [Phage-3112] | – | – | – | – | 0.135 | 2.08 | –
39 | NGVVCQPPWMCFGF (Clonal phage of the peptide-180 library; not shown: pIII filament protein of the bacteriophage, fused to the peptide) [Phage-3113] | – | – | – | – | 0.0794 | 2.08 | –
40 | VPRYCVPQWMCAAF (Clonal phage of the peptide-180 library; not shown: pIII filament protein of the bacteriophage, fused to the peptide) [Phage-3114] | – | – | – | – | 0.0864 | 2.08 | –
41 | AIAMCVPSWMCTGL (cysteine pairing not given here; also: fused to phage pIII, sequence not given here, not shown: pIII filament protein of the bacteriophage) [Phage-3213] | – | – | – | – | – | – | phage binding ELISA signal [9]: 1.97; phage binding ELISA signal [10]: 0.0711
42 | MAPYCVPSWMCWGF (not shown: pIII filament protein of the bacteriophage) [Phage-3214] | – | – | – | – | – | – | phage binding ELISA signal [9]: 1.97; phage binding ELISA signal [10]: 0.145
43 | LDLRCQPPWMCMGF (not shown: pIII filament protein of the bacteriophage) [Phage-3215] | – | – | – | – | – | – | phage binding ELISA signal [9]: 1.97; phage binding ELISA signal [10]: 0.0778
